Measurements as given in US20190201542A1 (AbbVie / Abbott, published 2019).
Substitutions are numbered along the chain they refer to.

T1: human DLL3 (human, UniProt Q9NYJ7 27-492, limits assumed)
T1 construct: also called hDLL3; DLL3 protein
T1 sequence: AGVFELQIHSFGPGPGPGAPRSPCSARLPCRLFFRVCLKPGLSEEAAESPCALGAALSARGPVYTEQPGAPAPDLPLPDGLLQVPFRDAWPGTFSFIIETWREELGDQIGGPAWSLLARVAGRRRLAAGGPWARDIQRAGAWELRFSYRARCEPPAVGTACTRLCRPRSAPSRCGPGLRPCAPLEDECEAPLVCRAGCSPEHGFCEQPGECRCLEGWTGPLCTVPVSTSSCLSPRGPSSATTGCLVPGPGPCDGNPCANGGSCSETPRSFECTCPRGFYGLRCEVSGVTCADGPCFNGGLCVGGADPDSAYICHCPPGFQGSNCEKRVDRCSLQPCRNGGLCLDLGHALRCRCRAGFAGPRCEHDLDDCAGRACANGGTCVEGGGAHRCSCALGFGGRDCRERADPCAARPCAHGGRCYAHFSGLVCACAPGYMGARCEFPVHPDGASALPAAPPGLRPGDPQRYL

B1: SC16.123 (antibody, V domains shown)
VH: QVALKESGPGILQPSQTLSLTCSFSGFSLSTSGMGVGWIRQPSGKGLEWLAHIWWDDVKRYNPALKSRLTISKDTSSSQVFLKIASVDTADTATYYCARMEDYGSSSYFDFWGHGTTLTVSS
VL: QIVLTQSPAIMSASLGERVTMTCTASSSVSSSYLHWYQQKPGSSPKLWIYSTSNLASGVPARFSGSGSGTSYSLTISSMETEDAATYYCHQYHRSPFTFGSGTKLEIK
notes: murine mAb
B2: SC16.126 (antibody, V domains shown)
VH: QVQMKESGPGLVAPSQSLSITCTVSGSSLTNYGVHWVRQPPGKGLEWLGVIWAGGSTNYNSALMSRLSISKDNSKSQVFLKMNSLQTDDTAMYYCARDWEGWFAYWGQGTLVTVSA
VL: DIQMNQSPSSLSASLGDTITITCHASQNINVWLSWYQQKPGNIPKLLIYKASNLHTGVPSRFSGSGSGTGFTLTISSLQPEDIATYYCQQGQSYPFTFGSGTKLEIK
notes: murine mAb
B3: SC16.131 (antibody, V domains shown)
VH: QVQLKESGPGLVAPSQSLSITCTVSGFSLTNYGVHWVRQPPGKGLEWLGVIWAGGITNYNSALMSRLSISEDNSKSQVFLKMNSLQTDDTAMYYCARNLGPYAMDYWGQGTSVTVSS
VL: B2 VL with A25V, Y49Q
notes: murine mAb
B4: SC16.149 (antibody, V domains shown)
VH: B2 VH with M4L, T23A, S27F, N31S, Y32F, N60Y, K71I
VL: B2 VL with N53H, F62L, K103T
notes: murine mAb
B5: SC16.148 (antibody, V domains shown)
VH: QIQLVQSGPELKKPGETVKISCKASGYTLTNYGMNWVKQAPGKGLKWMGWINTYTGEPTYADDFKGRFAFSLETSARIVYLQINNLKNEDTATYFCAKYEAHEGFVYWGQGTLVTVSA
VL: QIVLTQSPAIMSASPGEKVTMTCSASSSVSYMYWYQQKPGSSPRLLIYDTSNLASGVPVRFSGSGSGTSYSLTISRMEAEDTATYYCQEWSNNPLTFGDGTKLELK
notes: murine mAb
B6: SC16.124 (antibody, V domains shown)
VH: EVQLQQSGPELVKPGASVKMSCKASGYTFTSYVMHWVKQKPGQGLEWIGYINPYNDGTKYNEKFKGKATLTSDKSSSTAYMELSSLTSEDSAVYYCARGALYYGNYLGYFDVWGAGTTVTVSS
VL: DIQMTQSPASQSASLGESVTITCLASQTIGTWLAWYQQKPGKSPQLLISAATSLADGVPSRFSGSGSGTKFSFKISSLQAEDFVSYYCQQLYSTPWTFGGGTKLEIK
notes: murine mAb
B7: SC16.132 (antibody, V domains shown)
VH: QVQLKESGPGLVAPSQSLSITCTVSGFSLTDYGVSWIRQPPGKGLEWLGVVWGGGSTYYNSALKSRLSITKDNSKSQVFLKMNSLQTDDTAMYYCAKQRGQYGAYWGQGTLVTVSA
VL: B6 VL with S49Y
notes: murine mAb
B8: SC16.129 (antibody, V domains shown)
VH: B7 VH with V51I, T70S, K81E, M82L, M92I, Q98H, R99Y, Q101H, G103A
VL: B6 VL with S49Y, W96Y
notes: murine mAb
B9: SC16.138 (antibody, V domains shown)
VH: B7 VH with T70S
VL: B6 VL with S49Y, A50S
notes: murine mAb
B10: SC16.130 (antibody, V domains shown)
VH: EVQLQQSGPELVKPGASVKMSCKASGYTFTSYVMHWVKQKPGQGLEWIGYINPYNDGTEYNEKFKGKATLTSDKSSSTAYMELSSLTSEDSAVYYCARGVYDGYSYFDYWGQGTTLTVSS
VL: DIQLTQSPASLSASVGETVTITCRASGSIHNYLAWYQQKQGKSPQLLVYNAKTLVDGVPSRFSGSGSGTQYSLKINSLQPEDFGYYYCQHFWTTPWTFGGGTKLEIK
notes: murine mAb
B11: SC16.136 (antibody, V domains shown)
VH: EVQLQQSGPELVKPGASVKMSCKASGYTFTSYVMHWVKQKPGQGLEWIGYINPYNDGTKYNEKFKGKATLTSDKSSSTAYMELSSLTSEDSAVYYCARDRSGYEDYYGMDYWGQGTSVTVSS
VL: B10 VL with L4M, S28N, Q45H, V55A, Y85S, T93S
notes: murine mAb
B12: SC16.15 (antibody, V domains shown)
VH: QVQLQQSGAELAKPGASVKMSCKASGYTFTRYWIHWIKQRPGQGLEWIGYINPTTVYTEFNQNFKDKATLTADKSSTTASMQLSSLTSEDSAVYYCARGGSNFFDYWGQGTTLTVSS
VL: DIQMTQSPASLAASVGETVAITCRASENIYYNLAWYQQKQGKSPQLLIYTANSLEDGVPSRFSGSGSGTQYSLKINSMQPEDSATYFCKQAYDVPPTFGGGTKLEIK
notes: murine mAb
B13: SC16.133 (antibody, V domains shown)
VH: QVQLKESGPGLVAPSQSLSITCTVSGFSLTNYAVHWVRQSPGKGLEWLGVIWSDGSTDYNAAFISRLSISKDNSKSQVFFKMNSLQADDTAMYYCARKKGGWFPWFAYWGQGTLVTVSA
VL: SIVMTQTPKFLLVSAGDRVTITCKASQSVSNDVAWYQQKPGQSPKLLIYCASNRYTGVPDRFTGSGYGTDFTFTISTVQAEDLAVYFCQQDYSSPLTFGAGTKLELK
notes: murine mAb
B14: SC16.144 (antibody, V domains shown)
VH: QIQLVQSGPELKKPGETVKISCKASGYTFTNYGMNWVKQAPGKGLKWVGWINTYTGEPTYADDFKGRFAFSLETSASTAYLQIDNLKNEDTATYFCARVGDYVGFDYWGQGTTLTVSS
VL: B13 VL with A34G, C50Y, T56N, L96W, A100G, L106I
notes: murine mAb
B15: SC16.11 (antibody, V domains shown)
VH: QIQLVQSGPELKKPGETVKISCKASGYTFTDYSMHWVKQAPGKGLKWMGWINTETVEPTYADDFMGRFAFSLETSASTAFLQINNLENEDTATYFCARFGSYAMDYWGQGTSVTVSS
VL: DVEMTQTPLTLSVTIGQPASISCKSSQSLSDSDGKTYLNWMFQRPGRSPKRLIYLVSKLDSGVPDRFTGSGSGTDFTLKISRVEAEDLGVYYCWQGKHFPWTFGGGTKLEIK
notes: murine mAb
B16: SC16.143 (antibody, V domains shown)
VH: QVQLQQSGPELVKPGASVRISCKASGYTFTSYYIHWVKQRPGQGLEWIGWIYPGNGNTKYNEKFKGKATLTADKSSSTAYMQISSLTSEDSAVYFCARERWLLLWFAYWGQGTLVTVSA
VL: DVLMTQTPLSLPVSLGDQASISCRSSQSIVHSNGNTYLEWYLQKPGQSPKLLIYKVSNRFSGVPDRFSGSGSGTDFTLKISRVEAEDLGVYYCFQGSHVPLTFGAGTKLELK
notes: murine mAb
B17: SC16.137 (antibody, V domains shown)
VH: EVQLVESGGDLVKPGGSLKLSCAASGFTFSSYGMSWVRQTPDKRLEWVATISSGGSYTYYPDSVKGRFTISRDNAKNTLYLQMSSLKSEDTAMYYCARRRADAMDYWGQGTSVTVSS
VL: QIVLTQSPAIMSASLGEEITLTCSASSSVSYMHWYQQKSGTSPKLLIYSTSNLASGVPSRFSGSGSGTFYSLTISSVEAEDAADYYCHQWSSYHTFGGGTKLEIKR
notes: murine mAb
B18: SC16.147 (antibody, V domains shown)
VH: QIQLVQSGPELTKPGETVKISCKASGYTFTDYSLHWVKQALGKGLKWMGWINTETGEPAYADDFKGRFAFSLETSASTAYLQINDLKNEDTTTYFCGIYDGYAMDYWGQGTSVTVSS
VL: DIQMTQTASSLSASLGDRVTISCRASQDINNYLNWYQQKPDGTVKLLIYYTSRLHSGVPSRFSGSGSGTDYSLTISILEQEDIATYFCQQGDTLPWTFGGGTKLEIK
notes: murine mAb
B19: SC16.135 (antibody, V domains shown)
VH: QVQLQQSGAELVRPGTSVKVSCKASGYAFTNYLIEWVKQRPGQGLEWIGVINPGSGGTNSNEKFKAKATLTADKSSSTAYMQLSSLTSADSAVYFCARSDYDYAFYAMDYWGQGTSVTVSS
VL: DIKMTQSPSSMYASLGERVTITCKASQDINRYLSWFQQKPGKSPKTLIYRANRLVDGVPSRFSGSGSGQDYSLTISSLEYEDMGIYYCLQYDEFPFTFGSGTKLEIK
notes: murine mAb
B20: SC16.141 (antibody, V domains shown)
VH: QVQLKQSGPGLVAPSQSLFITCTVSGFSLTSYEINWVRQPPGKGLEWLGVIWTGGSTNYNSALISRLSISKDNSKSLVFLKMNSLQTDDTAIYYCVRGVYAMDYWGQGTSVTVSS
VL: B19 VL with R31S
notes: murine mAb
B21: SC16.140 (antibody, V domains shown)
VH: QVQLQQSGPELVRPGASVKMSCKASGYTFTSYWMHWVKQRPGQGLEWIGMIDPSNSETRLNQKFKDKATLNVDKSSNTAYMQLSSLTSEDSAVYYCAVMDYYFDYWGQGTTLTVSS
VL: DIVLTQSLASLAVSLGQRATISCRASKSVSTSGYSYMHWYQQKPGQPPKLLIYLASNLESGVPARFSGSGSGTDFTLNIHPVEDEDAATYYCQHSRELPFTFGGGTKLEIK
notes: murine mAb

What follows are binders tested against T1, human DLL3 (assay: screen on immobilized hDLL3 or h293-hDLL3 cells).
Procedure, shortened: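 After 10 days in culture, supernatants of single-cell hybridomas from human DLL3-immunized mice were tested on cells and by solid-phase ELISA. A flow-cytometry signal above the control level counted as binding. The ELISA used DLL3-His coated at 0.5 μg/ml, HRP anti-mouse IgG and TMB, with reading at OD 450.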

Row | binding result | Binder
1 | binds | B1
2 | binds | B2
3 | binds | B3
4 | binds | B4
5 | binds | B5
6 | binds | B6
7 | binds | B7
8 | binds | B8
9 | binds | B9
10 | binds | B10
11 | binds | B11
12 | binds | B12
13 | binds | B13
14 | binds | B14
15 | binds | B15
16 | binds | B16
17 | binds | B17
18 | binds | B18
19 | binds | B19
20 | binds | B20
21 | binds | B21
